The source of these data is US20240148884A1.

What all share (assay): cell-based or functional assay
Assay [1] has as its target cynomolgous monkey GLP1R (cynomolgous monkey).
Assay [2] deals with dog GLP1R (dog).
Assay [3] deals with mouse GLP1R (mouse) (UniProt O35659).
The target of assay [4] is cynomolgous monkey GIPR (cynomolgous monkey).
Assay [5] concerns the target dog GIPR (dog).
The target of assay [6] is T1, human GIPR (human) (UniProt P48546).
T1 sequence (looked up): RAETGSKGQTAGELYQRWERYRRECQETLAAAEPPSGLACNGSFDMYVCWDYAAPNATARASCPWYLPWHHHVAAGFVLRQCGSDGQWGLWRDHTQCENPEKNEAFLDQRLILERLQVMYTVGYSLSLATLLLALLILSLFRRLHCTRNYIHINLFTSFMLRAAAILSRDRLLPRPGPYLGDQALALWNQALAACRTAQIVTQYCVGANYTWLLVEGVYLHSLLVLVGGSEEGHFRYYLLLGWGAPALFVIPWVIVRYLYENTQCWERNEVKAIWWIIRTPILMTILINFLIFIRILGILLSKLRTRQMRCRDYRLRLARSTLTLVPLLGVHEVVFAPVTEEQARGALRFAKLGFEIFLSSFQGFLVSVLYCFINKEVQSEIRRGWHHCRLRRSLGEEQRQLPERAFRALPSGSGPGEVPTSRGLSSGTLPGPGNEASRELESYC

The target in assay [7] is T2, mouse GIPR (mouse) (UniProt Q0P543).
T2 sequence (looked up): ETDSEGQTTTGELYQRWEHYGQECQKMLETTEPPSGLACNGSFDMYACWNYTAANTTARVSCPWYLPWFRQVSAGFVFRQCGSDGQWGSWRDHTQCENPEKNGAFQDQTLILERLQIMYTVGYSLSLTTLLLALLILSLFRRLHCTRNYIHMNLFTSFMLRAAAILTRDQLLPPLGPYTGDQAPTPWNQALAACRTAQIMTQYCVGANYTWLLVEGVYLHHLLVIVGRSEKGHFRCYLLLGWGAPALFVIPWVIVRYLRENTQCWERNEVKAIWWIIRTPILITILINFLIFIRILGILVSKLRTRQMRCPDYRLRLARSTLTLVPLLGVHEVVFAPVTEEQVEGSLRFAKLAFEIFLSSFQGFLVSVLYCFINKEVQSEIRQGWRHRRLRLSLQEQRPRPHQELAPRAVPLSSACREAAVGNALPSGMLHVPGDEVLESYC

Chain of mouse GLP1R (mouse) (O35659 22-463 limits assumed): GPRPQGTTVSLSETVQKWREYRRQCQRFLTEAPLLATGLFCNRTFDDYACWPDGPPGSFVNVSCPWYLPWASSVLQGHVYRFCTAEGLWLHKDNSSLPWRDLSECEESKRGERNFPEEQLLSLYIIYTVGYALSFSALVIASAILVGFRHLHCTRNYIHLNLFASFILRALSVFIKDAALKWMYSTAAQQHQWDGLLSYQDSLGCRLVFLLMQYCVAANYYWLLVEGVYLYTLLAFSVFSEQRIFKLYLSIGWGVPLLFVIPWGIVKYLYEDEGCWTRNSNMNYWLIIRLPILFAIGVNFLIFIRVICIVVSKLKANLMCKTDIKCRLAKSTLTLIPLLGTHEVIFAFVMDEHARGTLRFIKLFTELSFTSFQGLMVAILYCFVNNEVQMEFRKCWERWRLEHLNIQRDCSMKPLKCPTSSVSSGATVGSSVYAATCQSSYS
Chain of dog GLP1R (dog) (chain, as listed by the source): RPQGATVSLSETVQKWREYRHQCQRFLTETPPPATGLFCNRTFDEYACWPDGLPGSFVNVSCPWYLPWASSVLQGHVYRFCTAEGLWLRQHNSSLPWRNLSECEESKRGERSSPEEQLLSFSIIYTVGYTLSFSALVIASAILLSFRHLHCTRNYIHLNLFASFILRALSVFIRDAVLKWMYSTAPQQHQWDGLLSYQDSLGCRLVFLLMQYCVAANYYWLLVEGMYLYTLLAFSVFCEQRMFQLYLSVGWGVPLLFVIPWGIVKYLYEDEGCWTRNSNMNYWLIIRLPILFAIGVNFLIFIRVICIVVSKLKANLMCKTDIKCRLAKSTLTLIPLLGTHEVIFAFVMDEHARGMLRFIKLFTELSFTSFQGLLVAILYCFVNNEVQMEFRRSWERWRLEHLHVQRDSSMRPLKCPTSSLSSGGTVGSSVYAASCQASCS

Substance Semaglutide (peptide) yielded an In Vitro Potency GLP1R EC50 [nM], Cyno in assay [1] of 0.13 nM. Besides, in assay [2], the In Vitro Potency GLP1R EC50 [nM], Dog stood at 0.67 nM. This substance showed an In Vitro Potency GLP1R EC50 [nM], Mouse in assay [3] of 0.1 nM.

In turn, Tirzepatide (peptide) displayed an In Vitro Potency GIPR EC50 [nM], Cyno in assay [4] of 0.08 nM. In assay [5], the In Vitro Potency GIPR EC50 [nM], Dog amounted to 0.1 nM. The substance also had an In Vitro Potency GIPR EC50 [nM], No Serum in assay [6] of 0.006 nM. The substance further showed an In Vitro Potency GLP1R EC50 [nM], Mouse in assay [3] of 0.16 nM.

On to “wild-type human GIP (hGIP) (from UniProt P09681 52-93) (ligand)”, for which, in assay [4], the In Vitro Potency GIPR EC50 [nM], Cyno is 0.69 nM. In assay [5], the In Vitro Potency GIPR EC50 [nM], Dog worked out at 0.7 nM. In assay [6], this substance had an In Vitro Potency GIPR EC50 [nM], 10% FBS of 0.01 nM and an In Vitro Potency GIPR EC50 [nM], No Serum of 0.05 nM. The substance also gave an In Vitro Potency GIPR EC50 [nM], Mouse in assay [7] of 0.34 nM.
